According to patent publication EP2033655B1:
Ends that are not written are not given here.

Target: Cell-surface expressed nucleolin (on THP-1 monocytic cells; on HeLa P4 cells) (human), P19338
Experiment: cell-based or functional assay

Cell-surface expressed nucleolin (on THP-1 monocytic cells; on HeLa P4 cells) (human), P19338, sequence (P19338 2-710 limits assumed): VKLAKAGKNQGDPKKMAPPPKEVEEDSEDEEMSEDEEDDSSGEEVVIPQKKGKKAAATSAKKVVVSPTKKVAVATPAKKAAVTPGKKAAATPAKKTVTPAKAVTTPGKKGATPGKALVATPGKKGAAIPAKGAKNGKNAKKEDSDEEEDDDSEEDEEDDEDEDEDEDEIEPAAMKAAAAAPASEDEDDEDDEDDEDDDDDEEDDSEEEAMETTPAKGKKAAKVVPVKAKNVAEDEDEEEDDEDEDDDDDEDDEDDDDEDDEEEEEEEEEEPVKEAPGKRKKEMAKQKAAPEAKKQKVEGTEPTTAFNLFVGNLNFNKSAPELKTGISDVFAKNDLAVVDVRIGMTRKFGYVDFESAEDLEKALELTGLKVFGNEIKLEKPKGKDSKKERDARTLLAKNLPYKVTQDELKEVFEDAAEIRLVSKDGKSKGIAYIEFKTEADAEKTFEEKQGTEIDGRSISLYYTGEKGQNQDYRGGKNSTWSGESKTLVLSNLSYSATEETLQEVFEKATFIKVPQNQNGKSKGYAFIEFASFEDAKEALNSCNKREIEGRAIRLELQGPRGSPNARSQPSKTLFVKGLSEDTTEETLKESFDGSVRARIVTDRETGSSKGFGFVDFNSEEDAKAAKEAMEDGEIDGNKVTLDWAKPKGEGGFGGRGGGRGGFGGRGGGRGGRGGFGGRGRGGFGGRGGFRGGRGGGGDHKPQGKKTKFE

B1: HB-19 pseudopeptide, 5[Lys (CH2N)Pro-Arg]-template-assembled synthetic peptide (peptide)
chain: KKKGPKEK
peptide: Lys-Pro-Arg
modifications: also: Lys (CH2N)Pro reduced bond, five Lys-Pro-Arg units assembled on template
  level of infection of THP-1 cells, HB-19 together with anti-CR3 Mab: 95%
